The source of these data is article PMC8857485, “Prostate secretory protein 94 inhibits sterol binding and export by the mammalian CAP protein CRISP2 in a calcium-sensitive manner” (The Journal of Biological Chemistry, 2022).

The target of experiment [1] is T1, CRISP2 Y99P, His-tagged (human, UniProt P16562 22-243, Y99P, RED-tris-NTA fluorescent label on the His tag).
T1 sequence: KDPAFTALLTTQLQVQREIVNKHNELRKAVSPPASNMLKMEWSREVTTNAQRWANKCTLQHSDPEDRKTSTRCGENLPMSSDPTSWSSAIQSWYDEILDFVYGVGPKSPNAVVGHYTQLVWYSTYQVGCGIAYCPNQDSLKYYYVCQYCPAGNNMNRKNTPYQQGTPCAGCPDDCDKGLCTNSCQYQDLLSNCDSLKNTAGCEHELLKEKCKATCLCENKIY
Briefly: MST.

In experiment [2] the target is T2, CRISP2 N97P, His-tagged (human, UniProt P16562 22-243, N97P, RED-tris-NTA fluorescent label on the His tag).
T2 sequence: T1 sequence with N76P, P78Y
Briefly: MST.

Experiment [3] has as its target T3, CRISP2 L98G, His-tagged (human, UniProt P16562 22-243, L98G, RED-tris-NTA fluorescent label on the His tag).
T3 sequence: T1 sequence with L77G, P78Y
Briefly: MST.

The target in experiment [4] is T4, Pry1 (pathogen related in yeast 1), C-terminal polyhistidine tag (S. cerevisiae, UniProt P47032 20-299, RED-tris-NTA fluorescent label on the His tag).
T4 construct: Pry1, S. cerevisiae CAP family member; source: E. coli BL21, purified (nickel-NTA); not shown: polyhistidine, C-terminal, kept
T4 sequence (looked up): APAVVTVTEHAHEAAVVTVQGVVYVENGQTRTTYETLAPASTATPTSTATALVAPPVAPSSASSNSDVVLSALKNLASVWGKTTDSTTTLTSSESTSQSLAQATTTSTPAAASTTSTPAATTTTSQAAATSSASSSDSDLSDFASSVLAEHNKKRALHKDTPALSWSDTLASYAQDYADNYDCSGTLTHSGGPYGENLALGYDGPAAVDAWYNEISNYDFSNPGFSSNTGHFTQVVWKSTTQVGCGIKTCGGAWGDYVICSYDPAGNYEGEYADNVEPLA
Briefly: MST; 100 nM CAP protein labelled with RED-tris-NTA on its His tag, serial dilution of unlabeled PSP94 or PSP94^F24G; 20 mM Tris pH 7.5, 30 mM NaCl, 0.05% Triton X-100; Monolith NT.115, 80% laser power; triplicates. Conditions: both partners purified.

For experiment [5], the target named is T5, CRISP2 (cysteine-rich secretory protein 2), C-terminal polyhistidine tag (human, UniProt P16562 22-243, RED-tris-NTA fluorescent label on the His tag).
T5 construct: also called Tpx-1; testis-specific protein 1; source: E. coli BL21, purified (nickel-NTA); not shown: polyhistidine, C-terminal, kept
T5 sequence (looked up): T1 sequence with P78Y
The experiment is described as above. Conditions: both partners purified.

Experiment [6] has as its target T6, CRISP3 (cysteine-rich secretory protein 3), C-terminal polyhistidine tag (human, UniProt P54108 21-245, RED-tris-NTA fluorescent label on the His tag).
T6 construct: CRISP3, human; pET22b; source: E. coli, inclusion bodies, purified under denaturing conditions, renatured (nickel-NTA); not shown: polyhistidine, C-terminal, kept
T6 sequence (looked up): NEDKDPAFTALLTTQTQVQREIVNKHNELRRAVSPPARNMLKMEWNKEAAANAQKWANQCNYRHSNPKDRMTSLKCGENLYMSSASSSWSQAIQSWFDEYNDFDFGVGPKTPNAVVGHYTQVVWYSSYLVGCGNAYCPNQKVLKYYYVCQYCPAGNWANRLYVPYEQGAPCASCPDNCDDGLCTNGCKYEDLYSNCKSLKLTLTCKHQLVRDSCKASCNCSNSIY
Described as above. Conditions: both partners purified.

Experiment [7] concerns the target T7, CRISP2 N97P, His-tagged (human, UniProt P16562 22-243, N97P, RED-tris-NTA fluorescent label on the His tag).
T7 construct: CRISP2 with the point mutation N97P in the β2-strand; Same construct as m4 with the mutation; source: E. coli, purified; not shown: polyhistidine, C-terminal, kept
T7 sequence (looked up): T1 sequence with N76P, P78Y
The description is as above. Conditions: both partners purified.

The target of experiment [8] is T8, CRISP2 L98G, His-tagged (human, UniProt P16562 22-243, L98G, RED-tris-NTA fluorescent label on the His tag).
T8 construct: CRISP2 with the point mutation L98G in the β2-strand; Same construct as m4 with the mutation; source: E. coli, purified; not shown: polyhistidine, C-terminal, kept
T8 sequence (looked up): T1 sequence with L77G, P78Y
The experiment is described as above. As to conditions: both partners purified.

Experiment [9] concerns the target T9, CRISP2 Y99P, His-tagged (human, UniProt P16562 22-243, Y99P, RED-tris-NTA fluorescent label on the His tag).
T9 construct: CRISP2 with the point mutation Y99P in the β2-strand; Same construct as m4 with the mutation; source: E. coli, purified; not shown: polyhistidine, C-terminal, kept
T9 sequence (looked up): T1 sequence
The description is as above. Conditions: both partners purified.

Experiment [10] has as its target T10, CRISP2^N97P L98G (Homo sapiens, UniProt P16562, L98G/N97P).
T10 construct: made in house; host or cells: E. coli
T10 sequence (P16562 22-243 N97P/L98G): T1 sequence with N76P, L77G, P78Y
Briefly: MST binding to CRISP2 double mutant N97P L98G. Details: species or system mammalian. As to conditions: read-out: Kd, protein-protein interaction with CRISP2^N97P L98G. As to the method:
Next, we generated all three double mutant combinations of CRISP2: N97P L98G, N97P Y99P, and L98G Y99P. These three double mutant versions of CRISP2 were again expressed as His-tagged proteins in E. coli and purified, and their capacity to bind sterols in the presence or absence of PSP94 was assessed by MST. […] The capacity of the CRISP2^L98G Y99P double mutant to bind sterols even in the presence of PSP94 was confirmed by the in vivo sterol export assay (Fig. 6, A and B). When expressed in yeast cells, the CRISP2^L98G Y99P double mutant was stably expressed and secreted as monitored by Western blotting (Fig. 6C).
MST experiments were performed to assess protein–protein, protein–lipid, and protein–calcium interactions using a Monolith NT.115 (Nanotemper Technologies). Proteins were labeled using the RED-tris-NTA His tag protein labeling kit. Labeled CAP proteins, 100 nM, were mixed with a serial dilution of unlabeled PSP94, PSP9^F24G, cholesterol sulfate, or calcium chloride, prepared in binding buffer (20 mM Tris pH 7.5, 30 mM NaCl, 0.05% Triton X-100). Samples were loaded into MST standard capillaries, and MST measurements were performed using an 80% laser power setting. The dissociation constant Kd was obtained by plotting the normalized fluorescence (Fnorm) against the logarithm of ligand concentration. […]

Experiment [11] deals with fatty acid export by CAP family members (CRISP2). As to the kind of experiment: Fatty acid export assay in yeast. As to conditions: co-expression with CRISP2 in faa1Δ faa4Δ pry1Δ pry3Δ yeast. The experiment is classed as cell-based, Saccharomyces cerevisiae. The source says:
We and others have previously shown that CAP proteins can bind eicosanoids and free fatty acids at a second lipid-binding site that is independent of the sterol-binding site ([30], [31]). To test whether PSP94 affects fatty acid binding by the CAP domain, we examined whether coexpression of PSP94 with CRISP2 affects fatty acid export from mutant cells lacking the two acyl-CoA synthases Faa1 and Faa4 and two of the three yeast CAP domain proteins, Pry1 and Pry3.
To analyze the CRISP2-dependent export of fatty acids, cells were grown overnight and the supernatant of 5 A600nm units of yeast cells was collected and dried in a freeze dryer. Fatty acid methyl esters (FAMEs) were produced by incubating the dried fractions at 85 °C for 45 min in 1 ml of methanol–sulfuric acid (5% v/v) supplemented with butylated hydroxytoluene (0.01% w/v). The FAMEs were extracted in a mixture containing 1.5 ml of NaCl (0.9% w/v) and 2 ml of hexane, and the upper phase was collected. FAMEs were then resuspended in heptane and separated on an Agilent 7890A gas chromatograph equipped with a DB-23 capillary column (30 m × 0.25 mm × 0.25 μm) (Agilent Technologies) and quantified relative to an internal standard (C17:0, 10 μg) as described ([31]).

Where a chain is given by its changes, count along the chain named.

B1: prostate secretory protein of 94 amino acids (PSP94), C-terminal polyhistidine tag (natural protein, human, UniProt P08118 21-114, looked up)
chain: SCYFIPNEGVPGDSTRKCMDLKGNKHPINSEWQTDNCETCTCYETEISCCTLVSTPVGYDKDNCQRIFKKEDCKYIVVEKKDPKKTCSVSEWII
notes: PSP94 (β-microseminoprotein), human; also called β-microseminoprotein; MSP; source: E. coli BL21, purified (nickel-NTA)
For the molecule B1, the Kd in experiment [1] was determined as 9.3 nM; in experiment [2], 8.1 nM; in experiment [3], 8.6 nM; in experiment [4] it was 70 nM; in [5], 6 nM. The binding result in experiment [6], in [7], in experiment [8] and in [9] was “binds” each time.

B2: PSP94: prostate secretory protein of 94 amino acids, His-tagged, purified from E. coli; or expressed in yeast (protein)
chain: B1 chain
modifications: left off: polyhistidine, C-terminal, state not stated
notes: prostate secretory protein of 94 amino acids, His-tagged, purified from E. coli; or expressed in yeast
On to B2, for which the Kd in [10] is 4 ± 1.8 nM. Further, in experiment [11], the “effect on fatty acid export” value was “does not affect fatty acid binding and export”.
